# Key:
# [1] = test system: ApoB100; assay: ApoB100 biogenesis and secretion from McArdle cells (pulse-chase) on Hsp110 over-expression; format: cell-based, rat
# Protocol: (§1) FIGS. 9A and 9B show the effect of Hsp110 over-expression on ApoB100 secretion from McArdle cells, a standard rat hepatoma cell model of lipoprotein metabolism. ApoB100 (FIG. 9A) and albumin (FIG. 9B) biogenesis and secretion were assessed by published pulse-chase analytical methods.
# (§2) An Hsp110 expression vector was obtained from Dr. John Subjeck (Roswell Park Cancer Center, N.Y.), and either that vector or a vector control was introduced into McArdle cells—a rat hepatoma cell line that also expresses full-length ApoB (that is, ApoB100). […] As a control, there was no effect on albumin secretion from these cells, regardless of whether Hsp110 was over-expressed (FIG. 9B). Furthermore, the over-expression of Hsp110 in the McArdle cells in the presence of a microsomal triglyceride transfer protein (MTP) inhibitor (BMS-200150; Jamil, H., D. A. Gordon, D. C. Eustice, C. M. Brooks, J. K. Dickson, Jr., Y. Chen, B. Ricci, C.-H. Chu, T. W. Harrity, C. P. Ciosek, Jr., S. A. Biller, R. E. Gregg, and J. R. Wetterau. 1996. An inhibitor of the microsomal triglyceride transfer protein inhibits apoB secretion from HepG2 cells. Proc Natl Acad Sci USA. 93, 11991-95) increased the percent of apoB recovered in the lysate and medium fractions from 14% to 28% (data not shown).
# [2] = test system: albumin; assay: Albumin secretion from McArdle cells (control); format: cell-based, rat; settings: Hsp110 over-expressed or not
# Protocol: as §1, §2
# [3] = test system: ApoB48; assay: In vitro ApoB48 degradation assay in yeast cytosol with added purified protein; format: biochemical; settings: purified protein added to wild type (SSE1) or delete (sse1) cytosols
# Protocol: In vitro Analysis of ApoB Degradation: ^35S methionine labeled ApoB48 was synthesized in the presence of canine pancreatic microsomes (DPM; Promega, Madison, Wis.) using the SP6-TNT Kit (Promega) and plasmid pSPB48 (see above) as previously described (Gusarova, et al., 2001). The reaction mixture was then layered onto 1 mL SH buffer (0.25M sucrose, 5 mM Hepes, pH 7.4) and centrifuged at 100,000g for 30 min at 4° C. The microsomal pellets were resuspended in 12 μl of 2×PH buffer (40 mM HEPES, pH 7.4, 220 mM KCl, 10 mM MgCl2) and pooled. Cytosol, prepared as previously described (McCracken and Brodsky, 1996), was diluted to a specified concentration and pre-incubated with 0.25 mM MG132 (Peptides International) or an equivalent volume of DMSO for 15 min on ice. Following the pre-incubation, cytosol and ApoB48 were mixed 1:1 with these reagents at final concentrations of, 2 mM ATP, 10 mM creatine phosphate, and 100μg/mL creatine phosphokinase. Aliquots of the reaction were incubated at 37° C. for 5, 15 and 30 min or the indicated times and the reaction was quenched by adding an equal volume of 2×Urea Buffer (125 mM Tris, pH 6.8, 4% SDS, 6M Urea, 1 mM EDTA, 10 mM DTT, 250 mM β-mercaptoethanol, 20% Glycerol) and the mixture was heated at 96° C. for 4 min. […] Phosphorimager data was analyzed using Image Gauge software (Fuji Film Science Lab). […]
Molecule,"percent of apoB recovered in the lysate and medium fractions ([1]; Hsp110 over-expression in the presence of MTP inhibitor BMS-200150, data not shown) [%]",amount of ApoB100 in cell extracts ([1]; especially notable at 30 min time point),"increase in the amount of ApoB 100 secreted ([1]; medium, Hsp110 vector vs vector control) [fold]",effect on albumin secretion [2],effect on ApoB48 in vitro [3]
"Hsp110: human Hsp110 over-expressed from an expression vector in McArdle cells (protein, UniProt Q92598 2-858, looked up) Heat shock protein 105 kDa: SVVGLDVGSQSCYIAVARAGGIETIANEFSDRCTPSVISFGSKNRTIGVAAKNQQITHANNTVSNFKRFHGRAFNDPFIQKEKENLSYDLVPLKNGGVGIKVMYMGEEHLFSVEQITAMLLTKLKETAENSLKKPVTDCVISVPSFFTDAERRSVLDAAQIVGLNCLRLMNDMTAVALNYGIYKQDLPSLDEKPRIVVFVDMGHSAFQVSACAFNKGKLKVLGTAFDPFLGGKNFDEKLVEHFCAEFKTKYKLDAKSKIRALLRLYQECEKLKKLMSSNSTDLPLNIECFMNDKDVSGKMNRSQFEELCAELLQKIEVPLYSLLEQTHLKVEDVSAVEIVGGATRIPAVKERIAKFFGKDISTTLNADEAVARGCALQCAILSPAFKVREFSVTDAVPFPISLIWNHDSEDTEGVHEVFSRNHAAPFSKVLTFLRRGPFELEAFYSDPQGVPYPEAKIGRFVVQNVSAQKDGEKSRVKVKVRVNTHGIFTISTASMVEKVPTEENEMSSEADMECLNQRPPENPDTDKNVQQDNSEAGTQPQVQTDAQQTSQSPPSPELTSEENKIPDADKANEKKVDQPPEAKKPKIKVVNVELPIEANLVWQLGKDLLNMYIETEGKMIMQDKLEKERNDAKNAVEEYVYEFRDKLCGPYEKFICEQDHQNFLRLLTETEDWLYEEGEDQAKQAYVDKLEELMKIGTPVKVRFQEAEERPKMFEELGQRLQHYAKIAADFRNKDEKYNHIDESEMKKVEKSVNEVMEWMNNVMNAQAKKSLDQDPVVRAQEIKTKIKELNNTCEPVVTQPKPKIESPKLERTPNGPNIDKKEEDLEDKNNFGAEPPHQNGECYPNEKNSVNMDLD",28,concomitant increase,~2,no effect,–
"Sse1p: active, recombinant purified yeast Hsp110 homolog Sse1p (GenBank NP_015219) (protein) STPFGLDLGNNNSVLAVARNRGIDIVVNEVSNRSTPSVVGFGPKNRYLGETGKNKQTSNIKNTVANLKRIIGLDYHHPDFEQESKHFTSKLVELDDKKTGAEVRFAGEKHVFSATQLAAMFIDKVKDTVKQDTKANITDVCIAVPPWYTEEQRYNIADAARIAGLNPVRIVNDVTAAGVSYGIFKTDLPEGEEKPRIVAFVDIGHSSYTCSIMAFKKGQLKVLGTACDKHFGGRDFDLAITEHFADEFKTKYKIDIRENPKAYNRILTAAEKLKKVLSANTNAPFSVESVMNDVDVSSQLSREELEELVKPLLERVTEPVTKALAQAKLSAEEVDFVEIIGGTTRIPTLKQSISEAFGKPLSTTLNQDEAIAKGAAFICAIHSPTLRVRPFKFEDIHPYSVSYSWDKQVEDEDHMEVFPAGSSFPSTKLITLNRTGDFSMAASYTDITQLPPNTPEQIANWEITGVQLPEGQDSVPVKLKLRCDPSGLHTIEEAYTIEDIEVEEPIPLPEDAPEDAEQEFKKVTKTVKKDDLTIVAHTFGLDAKKLNELIEKENEMLAQDKLVAETEDRKNTLEEYIYTLRGKLEEEYAPFASDAEKTKLQGMLNKAEEWLYDEGFDSIKAKYIAKYEELASLGNIIRGRYLAKEEEKKQAIRSKQEASQMAAMAEKLAAQRKAEAEKKEEKKDTEGDVDMD",–,–,–,–,stabilizes ApoB48
